Reference: US20120316071A1 (published 2012)

Columns and labels:
[1] = target: T1, Recombinant Human DLL4 (human, UniProt Q9NR61 27-524); test: ELISA, DLL4 coated on plate, Fab at 100 nM, absorbance at 450 nm minus blank
T1 construct: also called delta-like protein 4; rHuman DLL4

[2] = target: T2, Recombinant Human DLL4 (delta-like protein 4) (human, UniProt Q9NR61 27-524); test: ELISA, DLL4 coated on plate, Fab at 100 nM
T2 construct: also called rHuman DLL4; Delta-like 4

Binder	ELISA Signal-blank (100 nM Fab) [1]	ELISA Signal-blank (100 nM Fab) [2]
Fab VH5-51_IGHD5-18*01>3_IGHJ4*01 G100K/G104T G24T/S28R/G35V (H:KT TRV) & V3-4_IGLJ1*01 S36A (Fab, V domains shown, Fab; expressed in E. coli with CH1 (Plasmid A, His6 and Flag tags) and lambda CL (Plasmid E); also called H:KT TRV & S36A) VH: EVQLVQSGAEVKKPGESLKISCKTSGYRFTSYWIVWVRQMPGKGLEWMGIIYPGDSDTRYSPSFQGQVTISADKSISTAYLQWSSLKASDTAMYYCARRKYSYTYDYFDYWGQGTLVTVSS VL: QTVVTQEPSFSVSPGGTVTLTCGLSSGSVSTSYYPAWYQQTPGQAPRTLIYSTNTRSSGVPDRFSGSILGNKAALTITGAQADDESDYYCVLYMGSGISYVFGTGTKVTVL	0.38	–
Fab VH5-51_IGHD5-18*01>3_IGHJ4*01 G100K/G104T G24T/S28R/G35V & V3-4_IGLJ1*01 V91L/S96P (Fab, V domains shown, Fab expressed in E. coli; heavy chain vector adds CH1 with His6 and Flag tags, light chain vector adds lambda CL; Template of the S52, T53 and S57 light chain mutants; also called H:KT TRV & L:LP) VH: EVQLVQSGAEVKKPGESLKISCKTSGYRFTSYWIVWVRQMPGKGLEWMGIIYPGDSDTRYSPSFQGQVTISADKSISTAYLQWSSLKASDTAMYYCARRKYSYTYDYFDYWGQGTLVTVSS VL: QTVVTQEPSFSVSPGGTVTLTCGLSSGSVSTSYYPSWYQQTPGQAPRTLIYSTNTRSSGVPDRFSGSILGNKAALTITGAQADDESDYYCLLYMGPGISYVFGTGTKVTVL	–	0.39
Fab VH5-51_IGHD5-18*01>3_IGHJ4*01 G100K/G104T G24T/S28R/G35V (H:KT TRV) & V3-4_IGLJ1*01 T78K (Fab, V domains shown, Fab; expressed in E. coli with CH1 (Plasmid A, His6 and Flag tags) and lambda CL (Plasmid E); also called H:KT TRV & T78K) VH: EVQLVQSGAEVKKPGESLKISCKTSGYRFTSYWIVWVRQMPGKGLEWMGIIYPGDSDTRYSPSFQGQVTISADKSISTAYLQWSSLKASDTAMYYCARRKYSYTYDYFDYWGQGTLVTVSS VL: QTVVTQEPSFSVSPGGTVTLTCGLSSGSVSTSYYPSWYQQTPGQAPRTLIYSTNTRSSGVPDRFSGSILGNKAALTIKGAQADDESDYYCVLYMGSGISYVFGTGTKVTVL	0.48	–
Fab VH5-51_IGHD5-18*01>3_IGHJ4*01 G100K/G104T G24T/S28R/G35V & V3-4_IGLJ1*01 V91L/S96P S52G (Fab, V domains shown, Fab expressed in E. coli; heavy chain vector adds CH1 with His6 and Flag tags, light chain vector adds lambda CL; also called H:KT TRV & L:LP S52G) VH: EVQLVQSGAEVKKPGESLKISCKTSGYRFTSYWIVWVRQMPGKGLEWMGIIYPGDSDTRYSPSFQGQVTISADKSISTAYLQWSSLKASDTAMYYCARRKYSYTYDYFDYWGQGTLVTVSS VL: QTVVTQEPSFSVSPGGTVTLTCGLSSGSVSTSYYPSWYQQTPGQAPRTLIYGTNTRSSGVPDRFSGSILGNKAALTITGAQADDESDYYCLLYMGPGISYVFGTGTKVTVL	–	0.53
Fab VH5-51_IGHD5-18*01>3_IGHJ4*01 G100K/G104T G24T/S28R/G35V (H:KT TRV) & V3-4_IGLJ1*01 T78V (Fab, V domains shown, Fab; expressed in E. coli with CH1 (Plasmid A, His6 and Flag tags) and lambda CL (Plasmid E); also called H:KT TRV & T78V) VH: EVQLVQSGAEVKKPGESLKISCKTSGYRFTSYWIVWVRQMPGKGLEWMGIIYPGDSDTRYSPSFQGQVTISADKSISTAYLQWSSLKASDTAMYYCARRKYSYTYDYFDYWGQGTLVTVSS VL: QTVVTQEPSFSVSPGGTVTLTCGLSSGSVSTSYYPSWYQQTPGQAPRTLIYSTNTRSSGVPDRFSGSILGNKAALTIVGAQADDESDYYCVLYMGSGISYVFGTGTKVTVL	0.34	–

Results, then the binder that gave them:

ELISA Signal-blank (100 nM Fab) [1]	ELISA Signal-blank (100 nM Fab) [2]	Binder
0.574	–	Fab VH5-51_IGHD5-18*01>3_IGHJ4*01 G100K/G104T G24T/S28R/G35V (H:KT TRV) & V3-4_IGLJ1*01 S52A (Fab, V domains shown, Fab; expressed in E. coli with CH1 (Plasmid A, His6 and Flag tags) and lambda CL (Plasmid E); also called H:KT TRV & S52A) VH: EVQLVQSGAEVKKPGESLKISCKTSGYRFTSYWIVWVRQMPGKGLEWMGIIYPGDSDTRYSPSFQGQVTISADKSISTAYLQWSSLKASDTAMYYCARRKYSYTYDYFDYWGQGTLVTVSS VL: QTVVTQEPSFSVSPGGTVTLTCGLSSGSVSTSYYPSWYQQTPGQAPRTLIYATNTRSSGVPDRFSGSILGNKAALTITGAQADDESDYYCVLYMGSGISYVFGTGTKVTVL
–	0.44	Fab VH5-51_IGHD5-18*01>3_IGHJ4*01 G100K/G104T G24T/S28R/G35V & V3-4_IGLJ1*01 V91L/S96P S52H (Fab, V domains shown, Fab expressed in E. coli; heavy chain vector adds CH1 with His6 and Flag tags, light chain vector adds lambda CL; also called H:KT TRV & L:LP S52H) VH: EVQLVQSGAEVKKPGESLKISCKTSGYRFTSYWIVWVRQMPGKGLEWMGIIYPGDSDTRYSPSFQGQVTISADKSISTAYLQWSSLKASDTAMYYCARRKYSYTYDYFDYWGQGTLVTVSS VL: QTVVTQEPSFSVSPGGTVTLTCGLSSGSVSTSYYPSWYQQTPGQAPRTLIYHTNTRSSGVPDRFSGSILGNKAALTITGAQADDESDYYCLLYMGPGISYVFGTGTKVTVL
–	0.39	Fab VH5-51_IGHD5-18*01>3_IGHJ4*01 G100K/G104T G24T/S28R/G35V & V3-4_IGLJ1*01 V91L/S96P S52D (Fab, V domains shown, Fab expressed in E. coli; heavy chain vector adds CH1 with His6 and Flag tags, light chain vector adds lambda CL; also called H:KT TRV & L:LP S52D) VH: EVQLVQSGAEVKKPGESLKISCKTSGYRFTSYWIVWVRQMPGKGLEWMGIIYPGDSDTRYSPSFQGQVTISADKSISTAYLQWSSLKASDTAMYYCARRKYSYTYDYFDYWGQGTLVTVSS VL: QTVVTQEPSFSVSPGGTVTLTCGLSSGSVSTSYYPSWYQQTPGQAPRTLIYDTNTRSSGVPDRFSGSILGNKAALTITGAQADDESDYYCLLYMGPGISYVFGTGTKVTVL
0.532	–	Fab VH5-51_IGHD5-18*01>3_IGHJ4*01 G100K/G104T G24T/S28R/G35V (H:KT TRV) & V3-4_IGLJ1*01 T53A (Fab, V domains shown, Fab; expressed in E. coli with CH1 (Plasmid A, His6 and Flag tags) and lambda CL (Plasmid E); also called H:KT TRV & T53A) VH: EVQLVQSGAEVKKPGESLKISCKTSGYRFTSYWIVWVRQMPGKGLEWMGIIYPGDSDTRYSPSFQGQVTISADKSISTAYLQWSSLKASDTAMYYCARRKYSYTYDYFDYWGQGTLVTVSS VL: QTVVTQEPSFSVSPGGTVTLTCGLSSGSVSTSYYPSWYQQTPGQAPRTLIYSANTRSSGVPDRFSGSILGNKAALTITGAQADDESDYYCVLYMGSGISYVFGTGTKVTVL
0.301	–	Fab VH5-51_IGHD5-18*01>3_IGHJ4*01 G100K/G104T G24T/S28R/G35V (H:KT TRV) & V3-4_IGLJ1*01 Y33A (Fab, V domains shown, Fab; expressed in E. coli with CH1 (Plasmid A, His6 and Flag tags) and lambda CL (Plasmid E); also called H:KT TRV & Y33A) VH: EVQLVQSGAEVKKPGESLKISCKTSGYRFTSYWIVWVRQMPGKGLEWMGIIYPGDSDTRYSPSFQGQVTISADKSISTAYLQWSSLKASDTAMYYCARRKYSYTYDYFDYWGQGTLVTVSS VL: QTVVTQEPSFSVSPGGTVTLTCGLSSGSVSTSAYPSWYQQTPGQAPRTLIYSTNTRSSGVPDRFSGSILGNKAALTITGAQADDESDYYCVLYMGSGISYVFGTGTKVTVL
